# Measured values as given in patent US6468567B1, “Malt beverage having stabilized flavor and methods of production thereof” (Cerveceria Polar, C.A., priority 1997, dated 2002).
# B1: Reductase 1: NADPH-dependent oxidoreductase purified from brewer's yeast; first 30 residues show 100% homology to Old Yellow Enzyme isozyme OYE2 (protein, UniProt Q03558 2-400, looked up)
# NADPH dehydrogenase 2: PFVKDFKPQALGDTNLFKPIKIGNNELLHRAVIPPLTRMRAQHPGNIPNRDWAVEYYAQRAQRPGTLIITEGTFPSPQSGGYDNAPGIWSEEQIKEWTKIFKAIHENKSFAWVQLWVLGWAAFPDTLARDGLRYDSASDNVYMNAEQEEKAKKANNPQHSITKDEIKQYVKEYVQAAKNSIAAGADGVEIHSANGYLLNQFLDPHSNNRTDEYGGSIENRARFTLEVVDAVVDAIGPEKVGLRLSPYGVFNSMSGGAETGIVAQYAYVLGELERRAKAGKRLAFVHLVEPRVTNPFLTEGEGEYNGGSNKFAYSIWKGPIIRAGNFALHPEVVREEVKDPRTLIGYGRFFISNPDLVDRLEKGLPLNKYDRDTFYKMSAEGYIDYPTYEEALKLGWDKN
# Key:
# [1] = Substrate specificity assays of the purified reductase enzymes; type: biochemical; details: FIG. 10
# Protocol: The activities of the isolated and purified oxoaldehyde reductase enzymes were determined in a mixture containing 9 mM methylglyoxal, 0.1 mM NADPH, 25 mM potassium phosphate buffer (pH 7.0), and the fraction enzyme (8 μg approximately) in a total volume of 0.5 ml. The reaction was monitored at 340 nm. All assays were performed at 25° C. One unit of the enzyme was defined as the amount of enzyme that the catalyzes the oxidation of 1 μmol of NADPH per minute at 25° C.
# Various carbonyl compounds were assayed as substrates for the isolated and purified reductase enzymes.
# [2] = Effect of the reductases on the LC18 peak in fresh beer (HPLC); type: biochemical; details: 50 units/ml enzyme, 25° C., 30 minutes, FIG. 11
# Protocol: Analysis of the chemical indices LC18 and 5-HMF was performed by liquid chromatography, using a Waters HPLC system which consisted of a 600 pump, Wisp 717 autosampler, Millennium 2010 Chromatography Manager v 2.1. Separation was carried out in an Aminex HPX-87H column 300×7.8 mm, 9 μm held at 55° C. Elution was monitored with a Waters 991 Photodiode Array Detector (200 nm-300 nm) and the quantitation of 5-HMF and LC18 peak was carried out at 283 nm. For analysis, 50 μl of degassed beer was injected in duplicate samples and eluted with 0.05 M H2SO4 over 25 min at a flow rate of 1.0 ml/min. Quantitation of 5-HMF was performed using an external calibration curve of the respective pure compounds (Sigma; Saint Louis, Mo.).
# In order to determine the effect of both reductases on the intensity of the LC18 peak, a 1 ml mixture of fresh beer, 25 mM potassium phosphate buffer (pH 7.0), 0.1 mM NADPH and the required volume of enzyme to obtain a final concentration in the solution of 50 units/ml of enzyme was incubated at 25° C. for 30 minutes. After the incubation, the treated beer was analyzed on an Aminex HPX-87H column connected to a Waters HPLC System under the conditions described above.
molecule,measurement,setting,value
B1,activity on pyruvate,[1],neither enzyme showed any appreciable activity
same,"effect on the assayed aldoses (glucose, galactose and xylose)",[1],little or no effect
same,metyrapone as substrate,[1],acceptable substrate
same,activity on compounds with a single keto or aldo group such as acetaldehyde and pyridine-3-aldehyde,[1]; comparison of Reductase 1 with Reductase 2,higher activity than Reductase 2
same,activity on 2-oxoaldehydes such as methylglyoxal and 3-deoxyglucosone,"[1]; substrates methylglyoxal, 3-deoxyglucosone",acted on
same,change in the area of the LC18 peak,"[2]; 0.1 mM NADPH, relative to untreated control beer",significant decrease
same,decrease in the LC18 peak compared with Reductase 2,[2],larger decrease
